The target of experiment [1] is HLA-A*02:01. Briefly: IEDB peptide-MHC binding, purified MHC/competitive/fluorescence; filed as Kd, often an IC50 or EC50 that approximates it; ≥ and ≤ were set here for values at or beyond the usual limits of such assays.
The target of experiment [2] is HLA-A*26:01. The experiment is described as above.
Experiment [3] deals with HLA-A*69:01. Described as above.
The target of experiment [4] is HLA-B*15:01. The experiment is described as above.
Experiment [5] concerns the target HLA-B*15:17. The experiment is described as above.
Experiment [6] addresses HLA-B*18:01. The description is as above.
Experiment [7] has as its target HLA-B*27:03. The experiment is described as above. Particulars: source organism: Homo sapiens.
Experiment [8] deals with HLA-B*39:01. The description is as above.
For experiment [9], the target named is HLA-B*46:01. Described as above.
The target in experiment [10] is HLA-B*51:01. The experiment is described as above.
In experiment [11] the target is HLA-B*57:01. The description is as above.
The target in experiment [12] is HLA-A*02:01. Briefly: IEDB peptide-MHC binding, purified MHC/competitive/radioactivity; filed as Kd, often an IC50 or EC50 that approximates it; ≥ and ≤ were set here for values at or beyond the usual limits of such assays. Particulars: source organism: Hepatitis C virus (isolate 1).
For experiment [13], the target named is HLA-A*02:02. The description is as above. Particulars: source organism: Hepatitis C virus (isolate 1).
For experiment [14], the target named is HLA-A*02:03. The description is as above. Particulars: source organism: Hepatitis C virus (isolate 1).
The target of experiment [15] is HLA-A*02:06. Described as above. Particulars: source organism: Hepatitis C virus (isolate 1).
Experiment [16] concerns the target HLA-A*03:01. The description is as above.
For experiment [17], the target named is HLA-A*11:01. The experiment is described as above. Particulars: source organism: Hepatitis C virus (isolate 1).
In experiment [18] the target is HLA-A*31:01. The experiment is described as above.
Experiment [19] deals with HLA-A*33:01. Described as above.
Experiment [20] has as its target HLA-A*68:01. Described as above.
Experiment [21] addresses HLA-A*68:02. The description is as above. Particulars: source organism: Hepatitis C virus (isolate 1).
Experiment [22] concerns the target HLA-B*07:02. The experiment is described as above. Particulars: source organism: Hepatitis C virus (isolate 1).
The target of experiment [23] is HLA-B*08:01. Described as above. Particulars: source organism: Hepatitis C virus (isolate 1).
Experiment [24] concerns the target HLA-B*18:01. Described as above. Particulars: source organism: Hepatitis C virus (isolate 1).
Experiment [25] concerns the target HLA-B*35:01. Described as above. Particulars: source organism: Hepatitis C virus (isolate 1).
Experiment [26] deals with HLA-B*40:01. The experiment is described as above. Particulars: source organism: Hepatitis C virus (isolate 1).
In experiment [27] the target is HLA-B*40:02. The description is as above. Particulars: source organism: Hepatitis C virus (isolate 1).
For experiment [28], the target named is HLA-B*44:02. The experiment is described as above. Particulars: source organism: Hepatitis C virus (isolate 1).
Experiment [29] addresses HLA-B*44:03. Described as above. Particulars: source organism: Hepatitis C virus (isolate 1).
The target in experiment [30] is HLA-B*51:01. Described as above. Particulars: source organism: Hepatitis C virus (isolate 1).
Experiment [31] deals with HLA-B*53:01. The experiment is described as above. Particulars: source organism: Hepatitis C virus (isolate 1).
The target of experiment [32] is HLA-B*54:01. Described as above. Particulars: source organism: Hepatitis C virus (isolate 1).
The target of experiment [33] is HLA-A*11:01. Briefly: IEDB peptide-MHC binding, purified MHC/competitive/fluorescence; ≥ and ≤ were set here for values at or beyond the usual limits of such assays.
For experiment [34], the target named is HLA-A*24:02. The experiment is described as above. Particulars: source organism: Variola virus.
Experiment [35] addresses HLA-A*02:01. Described as above.
The target of experiment [36] is HLA-A*02:01. Nature of the experiment: IEDB peptide-MHC binding, purified MHC/direct/fluorescence; filed as Kd, often an IC50 or EC50 that approximates it; ≥ and ≤ were set here for values at or beyond the usual limits of such assays. Particulars: source organism: Ebola virus - Mayinga, Zaire, 1976.
Experiment [37] has as its target HLA-A*02:12. Described as above. Particulars: source organism: Ravn virus - Ravn, Kenya, 1987.
In experiment [38] the target is HLA-A*69:01. Described as above. Particulars: source organism: Ebola virus - Mayinga, Zaire, 1976.
For experiment [39], the target named is HLA-A*03:01. Nature of the experiment: IEDB peptide-MHC binding, purified MHC/competitive/fluorescence; filed as Kd, often an IC50 or EC50 that approximates it; ≥ and ≤ were set here for values at or beyond the usual limits of such assays.
In experiment [40] the target is HLA-B*27:05. Nature of the experiment: IEDB peptide-MHC binding, purified MHC/direct/fluorescence; filed as Kd, often an IC50 or EC50 that approximates it; ≥ and ≤ were set here for values at or beyond the usual limits of such assays. Particulars: source organism: Reston ebolavirus - Reston.
Experiment [41] has as its target HLA-B*18:01. Described as above. Particulars: source organism: Influenza A virus (A/camel/Mongolia/1982(H1N1)).
Experiment [42] addresses HLA-B*40:01. Described as above. Particulars: source organism: Influenza A virus (A/camel/Mongolia/1982(H1N1)).
For experiment [43], the target named is HLA-B*44:02. Described as above. Particulars: source organism: Influenza A virus (A/camel/Mongolia/1982(H1N1)).
The mark [44] stands for this setting: source organism: Hepatitis C virus (isolate 1).
Setting [45] is: source organism: Sudan ebolavirus.
The mark [46] stands for this setting: source organism: Reston ebolavirus - Reston (1989).
[47] abbreviates: source organism: Zaire ebolavirus.
Setting [48] is: source organism: Vaccinia virus WR.
Where [49] appears, read: source organism: Vaccinia virus.

Among the data in the Immune Epitope Database (IEDB) are Kd and IC50 values, retold here.

Where only a bound is given, the exact number is not on record here.

Take YSDNEMLTH: the equilibrium dissociation constant (Kd) in [1] (source organism: Homo sapiens), in [2] (source organism: Homo sapiens), in experiment [3] (source organism: Homo sapiens), in experiment [4] (source organism: Homo sapiens), in experiment [5] (source organism: Homo sapiens) and in [6] (source organism: Homo sapiens) was at least 20 µM in each case. The equilibrium dissociation constant (Kd) in [7], in [8] (source organism: Homo sapiens), in [9] (source organism: Homo sapiens), in [10] (source organism: Homo sapiens) and in [11] (source organism: Homo sapiens) was at least 20 µM each time.
ATDALMTGY: the equilibrium dissociation constant (Kd) (as a rule, the concentration at which binding is half-saturated) amounted to 1.45 µM in experiment [12]; 1.58 µM in experiment [13]; 5.92 µM in experiment [14]; 5.65 µM in experiment [15]; 3.32 µM in experiment [16] (setting [44]); 0.0196 µM in experiment [17]. The dissociation constant Kd was at least 72.3 µM in experiment [18] (setting [44]); at least 77.7 µM in experiment [19] (setting [44]); at least 77.7 µM in [20] (setting [44]); at least 69.8 µM in [21]; at least 32.9 µM in experiment [22]; at least 64.7 µM in experiment [23]. Moreover, the Kd in experiment [24] is at least 77.5 µM; in experiment [25] it was at least 36.4 µM; in [26] it was at least 76.2 µM; in [27] it was at least 77.3 µM; in experiment [28], at least 78 µM; in experiment [29], at least 78.2 µM. For the same sequence, the dissociation constant Kd in experiment [30] was at least 77.5 µM; in [31] it was at least 78.2 µM; in [32], at least 63.1 µM.
As to DIIIAVARK, the concentration for half-maximal inhibition (IC50) – broadly, the point on the concentration scale where inhibition reaches its midpoint – in experiment [33] (source organism: Variola virus) was at least 177 µM; in experiment [34] it was 61.6 µM.
In the case of SMPLGVVTN, the figures for the IC50 in experiment [35] (setting [45]) and in experiment [33] (setting [45]) were at least 115 µM and at least 163 µM, respectively.
Regarding LLADGLAKA, the dissociation constant Kd came to 0.0257 µM in experiment [36], 0.004 µM in [37] and 0.848 µM in experiment [38].
KIEAPLLLH returned a dissociation constant (Kd) in experiment [39] (source organism: Escherichia coli str. K-12 substr. MG1655) of 0.116 µM.
Take GRYNLVPPK: the dissociation constant Kd is 0.0976 µM in experiment [40]; at least 20 µM in experiment [1] (setting [46]); at least 20 µM in experiment [2] (setting [46]); at least 20 µM in experiment [3] (setting [46]); at least 20 µM in experiment [4] (setting [46]); at least 20 µM in [5] (setting [46]). In addition, the Kd in experiment [6] (setting [46]), in experiment [8] (setting [46]), in [9] (setting [46]), in experiment [10] (setting [46]) and in experiment [11] (setting [46]) was at least 20 µM throughout.
In [39] (source organism: Yersinia pestis Nepal516), RLCRFRKSK had a dissociation constant Kd of 0.121 µM.
In experiment [33] (setting [47]), LGLDDQEKK returned a half-inhibitory concentration (IC50) of 30.7 µM.
Regarding ETITEKTFK, the IC50 in experiment [33] (source organism: Vaccinia virus Copenhagen) turned out to be 5.57 µM. In addition, the Kd in experiment [16] (setting [48]) is 3.06 µM; in [18] (setting [48]), 0.823 µM; in experiment [19] (setting [48]), 0.0026 µM; in [20] (setting [48]), 0.0121 µM.
Take GVVVSTNRL: the IC50 is 9.53 µM in experiment [35] (setting [49]) and at least 80 µM in experiment [33] (setting [49]).
For the sequence NCYNLEIKK, in experiment [33] (setting [45]), the IC50 was at least 72.4 µM.
In the case of MEYDAVATT, the Kd in [41] was at most 0.001 µM; in experiment [42] it was 0.707 µM; in experiment [43] it was at least 20 µM.
As to TLQVSDVDK, the concentration for half-maximal inhibition (IC50) in experiment [33] (setting [47]) is 41.9 µM.
